{"source": "patent US20140056926A1", "about": "(SNU R AND DB FOUNDATION, published 2014)", "target": "T1, integrin alpha2b beta3 (UniProt P08514 32-993; P05106 27-718)", "T1 construct": "also called integrin α2b β3; integrin alpha2 beta3", "test": "ELISA on coated integrin alpha2b beta3 (100 ng per well), anti-human Fab-HRP, absorbance 405 nm"}
{"binder": "abciximab (ReoPro) (Fab, V domains shown) VH: EVQLQQSGTVLARPGASVKMSCEASGYTFTNYWMHWVKQRPGQGLEWIGAIYPGNSDTSYIQKFKGKAKLTAVTSTTSVYMELSSLTNEDSAVYYCTLYDGYYVFAYWGQGTLVTVSA VL: EIVLTQSPVTLSVTPGDSVSLSCRASRDISNNLHWFQQTSHESPRLLIKYASQSMSGIPSRFSGSGSGTDFTLSINSVETEDFGMYFCQQTNSWPYTFGGGTKLEIK", "values": [{"measurement": "EC50 (read off the curve)", "result": "~0.8", "unit": "nM"}]}
